Results reported in patent US8936785 (ESBATECH AN ALCON BIOMEDICAL RESEARCH UNIT, dated 2015).
Where a chain is given by its changes, count along the chain named.

B1: TB-H_F68V_F70L (scFv)
scFv: DIVMTQSPSSLSASVGDRVTLTCTASQSVSNDVVWYQQRPGKAPKLLIYSAFNRYTGVPSRFSGRGYGTDFTLTISSLQPEDVAVYYCQQDYNSPRTFGQGTKLEVKRGGGGSGGGGSGGGGSSGGGSQVQLVQSGAEVKKPGASVKVSCTASGYTFTHYGMNWVRQAPGKGLEWMGWINTYTGEPTYADKFKDRVTLSLETSASTVYMELTSLTSDDTAVYYCARERGDAMDYWGQGTLVTVSS
B2: TB-H_F70L (scFv)
scFv: B1 scFv with V196F

Target: TNFα (tumour necrosis factor alpha) (UniProt P01375 77-233, limits assumed)
Sequence (P01375 77-233 limits assumed): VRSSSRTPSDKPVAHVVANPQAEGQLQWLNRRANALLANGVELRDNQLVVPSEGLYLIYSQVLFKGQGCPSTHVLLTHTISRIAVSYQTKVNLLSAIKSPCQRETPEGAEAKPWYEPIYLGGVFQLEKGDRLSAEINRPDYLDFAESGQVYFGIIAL
Assay: cell-based or functional assay

Row | Binder | Relative potency: EC50X/EC50ESBA105, L929 cells [ratio EC50X/EC50ESBA105]
1 | B1 | 1.28
2 | B2 | 2.7
